The text below walks through data of PMC4304707, “Regulation of Oncogene Expression in T-DNA-Transformed Host Plant Cells”.

The target of this series is T1, 6xHis-WRKY40 (Arabidopsis thaliana, UniProt Q9SAH7 1-302).
T1 sequence: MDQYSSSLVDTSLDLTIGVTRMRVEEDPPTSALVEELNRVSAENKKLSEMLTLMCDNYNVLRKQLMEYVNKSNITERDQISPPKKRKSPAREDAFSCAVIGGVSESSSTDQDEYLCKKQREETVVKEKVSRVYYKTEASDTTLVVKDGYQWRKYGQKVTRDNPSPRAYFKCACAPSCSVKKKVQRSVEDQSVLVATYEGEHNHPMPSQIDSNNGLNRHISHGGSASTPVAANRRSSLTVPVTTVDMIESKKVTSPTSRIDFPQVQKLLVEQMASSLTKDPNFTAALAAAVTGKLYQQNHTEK
The experiment in a line: EMSA; 150 ng weak band, 300 ng much stronger band; about 5 ng probe; unlabeled probe competitor significantly reduced binding. The note with it: protein: recombinant; tags: N-terminal 6xHis (pET28b, NdeI/XhoI); label: 32P 5' end (T4 PNK); blunt (implied by two complementary oligonucleotides). (In general: Mobility shift assays separate free from complexed probe on a gel.)

B1: Ipt promoter probe (-184 to -135) (dsDNA)
DNA 1: GATTTAGTCAGCCTTATTTGACTTAAGGGTGCCCTCGTTAGTGACAAATT
DNA 2: AATTTGTCACTAACGAGGGCACCCTTAAGTCAAATAAGGCTGACTAAATC
For B1, the binding result is given as “binds”.
